From PMC5037814

Assays:
[1] = target: native bovine Casq1 (skeletal muscle calsequestrin, glycosylated) (bovine (B. taurus)); assay: SEC-MALS; 50 µM Casq1 on Yarra 3u SEC-2000, 20 mM MOPS, 300 mM KCl, 0.05 g/dL NaN3, pH 7.2, 1 mM CaCl2
[2] = target: native bovine Casq1 (skeletal muscle calsequestrin, glycosylated) (bovine (B. taurus)); assay: SEC-MALS; 50 µM Casq1 on Yarra 3u SEC-2000, 20 mM MOPS, 300 mM KCl, 0.05 g/dL NaN3, pH 7.2, 2 mM CaCl2
[3] = target: native bovine Casq1 (skeletal muscle calsequestrin, glycosylated) (bovine (B. taurus)); assay: crystal structure; high-Ca2+ form: protein incubated with 5 mM Ca2+ before mixing (2.5 mM in the drop); hanging drop, 4 °C, 0.1 M HEPES, 0.2 M NaCl, 27.5% MPD, pH 7.0
[4] = target: recombinant bovine Casq1 (non-glycosylated) (bovine (B. taurus)); assay: SEC-MALS; 50 µM Casq1 on Yarra 3u SEC-2000, 20 mM MOPS, 300 mM KCl, 0.05 g/dL NaN3, pH 7.2, 2 mM CaCl2
[5] = target: recombinant bovine Casq1 (non-glycosylated) (bovine (B. taurus)); assay: crystal structure; high-Ca2+ form: protein incubated with 5 mM Ca2+ before mixing (2.5 mM in the drop); hanging drop, 4 °C, 0.1 M HEPES, 0.2 M NaCl, 27.5% MPD, pH 7.0

Substance | stoichiometry N [1] | stoichiometry N [2] | stoichiometry N [3] | stoichiometry N [4] | stoichiometry N [5]
native bovine Casq1 (skeletal muscle calsequestrin, glycosylated) (natural protein) | 2 | 4 | 6 |  | 
recombinant bovine Casq1 (non-glycosylated) (natural protein) |  |  |  | 2 | 6
